The source of these data is patent publication US20250144104, “DISCOVERY OF A NEW INHIBITOR FOR THE YTH DOMAIN-CONTAINING M6A RNA READERS” (The Trustees of Boston College, published 2025).

The target of data set [1] is T1, YTHDF2 YTH domain (UniProt Q9Y5A9 Q9Y5A9:383-553).
T1 sequence: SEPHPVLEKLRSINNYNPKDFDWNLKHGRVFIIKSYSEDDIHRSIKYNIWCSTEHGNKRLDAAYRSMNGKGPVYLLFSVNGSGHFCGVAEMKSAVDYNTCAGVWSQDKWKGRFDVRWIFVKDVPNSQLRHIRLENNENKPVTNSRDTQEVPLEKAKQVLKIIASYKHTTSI
As to the kind of experiment: competition; value only in figure; 2 uM protein, 25 nM FAM-m6A-RNA. Particulars: tags: N-terminal His-tag (pET28a), E. coli BL21(DE3); label: 5'-biotin.

For data set [2], the target named is T2, YTHDC1 YTH domain (UniProt Q96MU7 Q96MU7:345-509). Described as above.
In data set [3] the target is T3, YTHDF3 YTH domain (UniProt Q7Z739 Q7Z739:391-585).
T3 sequence: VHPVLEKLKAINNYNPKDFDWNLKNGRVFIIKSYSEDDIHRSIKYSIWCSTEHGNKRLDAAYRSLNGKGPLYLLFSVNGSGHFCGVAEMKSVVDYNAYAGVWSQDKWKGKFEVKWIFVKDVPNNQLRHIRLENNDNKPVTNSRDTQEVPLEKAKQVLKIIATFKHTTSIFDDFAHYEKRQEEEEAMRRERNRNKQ
The data set is described as above. Particulars: tags: N-terminal His-tag (pET28a), E. coli BL21(DE3); label: 5'-biotin.

The target in another data set is T4, YTHDC2 YTH domain (UniProt Q9H6S0 Q9H6S0:1285-1424).
T4 sequence: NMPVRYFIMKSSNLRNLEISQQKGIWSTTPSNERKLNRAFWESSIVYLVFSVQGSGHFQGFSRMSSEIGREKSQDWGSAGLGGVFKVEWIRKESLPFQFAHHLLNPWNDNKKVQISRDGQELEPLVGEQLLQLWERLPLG
Description: competition; value only in figure; 10 uM protein, 25 nM FAM-m6A-RNA. The settings on record: tags: N-terminal His-tag (pET28a), E. coli BL21(DE3); label: FAM.

Another data set addresses FTO (UniProt Q9C0B1 Q9C0B1:1-505). As to the kind of experiment: FP; value only in figure; 50 mM borate pH 7.5. Particulars: tags: His-tag (Ni resin purified), E. coli BL21(DE3); label: 5'-FAM.
Data set [4] deals with T1, YTHDF2 YTH domain. As to the kind of experiment: FP; value only in figure; 25 mM Tris-HCl pH 7.5, 150 mM NaCl. The settings on record: tags: N-terminal His-tag (pET28a), E. coli BL21(DE3); label: 5'-FAM. As to the method:
(§1) Fluorescence polarization (FP) experiments were performed following the previously reported FP assay conditions for FAM-labeled RNA and YTH domains. Briefly, experiments were conducted in the binding buffer containing 25 mM Tris-HCl, pH 7.5, and 150 mM NaCl[50]. The same binding buffer was used in this study unless otherwise specified. RNA samples were diluted to 50 nM from the stock solutions by the binding buffer. YTH domain proteins were thawed, buffer exchanged into the binding buffer at 4° C. using the 10 kDa-cutoff concentrators (Sigma-Aldrich), and adjusted to 2× of the highest concentration used in the binding assay. […] RNase inhibitor (SUPERaseIn, Invitrogen) was added. 40 L protein solutions with various concentrations were prepared by serial dilution using the binding buffer. Subsequently, we added 40 L diluted RNA into each 40 L protein solution, mixed, and incubated at room temperature for 30 minutes. The final concentration of FAM-m⁶A-RNA or FAM-A-RNA was constant at 25 nM, and the YTH-domain protein concentrations varied from 10 nM to 24 μM. […] After incubation, samples were transferred to a black polypropylene 384-well round-bottom plate (Cellvis) and FP was measured on a Synergy™ Neo2 Multimode Microplate Reader at the wavelength of 485/20 nm for excitation and 528/20 nm for emission at 25° C.

Data set [5] has as its target T3, YTHDF3 YTH domain. The description is as above. The settings on record: tags: N-terminal His-tag (pET28a), E. coli BL21(DE3); label: 5'-FAM. How it is done:
as §1

For the next data set, the target named is T5, YTHDF1 YTH domain (UniProt Q9BYJ9 Q9BYJ9:375-552).
T5 sequence: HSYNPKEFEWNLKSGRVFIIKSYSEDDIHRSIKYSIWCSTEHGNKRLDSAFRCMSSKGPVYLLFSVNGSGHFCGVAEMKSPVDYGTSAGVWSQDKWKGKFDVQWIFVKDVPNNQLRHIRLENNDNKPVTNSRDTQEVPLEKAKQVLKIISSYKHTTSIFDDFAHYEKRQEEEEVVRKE
Description: FP; 25 mM Tris-HCl pH 7.5, 150 mM NaCl, 25 C. The settings on record: tags: N-terminal His-tag (pET28a), E. coli BL21(DE3); label: 5'-FAM. How it is done: as §1

The target in data set [6] is T2, YTHDC1 YTH domain. As to the kind of experiment: EMSA; 20 nM protein, 25 nM RNA, 10 mM HEPES, 50 mM KCl, 1 mM EDTA; complex inhibited by N-7. A general note: In EMSA bound probe runs differently from free probe, usually more slowly.

FTO, sequence (Q9C0B1 whole entry, the tested form may be a part, one chain of several): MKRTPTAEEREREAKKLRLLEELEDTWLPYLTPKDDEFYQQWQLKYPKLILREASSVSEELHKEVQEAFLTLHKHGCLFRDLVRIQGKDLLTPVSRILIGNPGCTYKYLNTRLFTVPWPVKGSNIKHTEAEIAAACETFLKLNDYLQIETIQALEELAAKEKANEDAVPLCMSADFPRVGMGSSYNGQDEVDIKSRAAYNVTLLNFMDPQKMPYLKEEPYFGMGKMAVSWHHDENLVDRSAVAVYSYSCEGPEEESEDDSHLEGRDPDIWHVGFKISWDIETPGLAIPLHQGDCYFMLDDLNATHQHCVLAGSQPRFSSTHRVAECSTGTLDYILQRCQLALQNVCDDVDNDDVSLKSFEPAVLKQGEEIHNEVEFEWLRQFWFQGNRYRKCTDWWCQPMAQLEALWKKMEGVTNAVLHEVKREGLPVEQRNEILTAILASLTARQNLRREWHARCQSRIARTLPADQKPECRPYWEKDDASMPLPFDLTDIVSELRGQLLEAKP
Description for YTHDC2 YTH domain: To set up the FP competition assay, we first used the non-fluorescent “m⁶A-RNA” (FIG. 1C) as a positive control inhibitor. […] Samples were transferred onto the 384-well plate and measured on the plate reader as described above. We obtained the dose-response curves by plotting the FP values against concentrations of inhibitors. The inhibitory curves and IC₅₀ values were obtained using the “Dose-response Inhibition” model in GraphPad Prism6.0™.

B1: m6A-RNA (non-fluorescent) (ssRNA)
RNA: GAACCGGACUGUCUUA
modifications: m6A at position 8
On to B1, for which the binding result with YTHDF2 YTH domain [1], with YTHDC1 YTH domain [2], with YTHDF3 YTH domain [3] and with YTHDC2 YTH domain was “binds” each time.

B2: FAM-m6A-RNA (ssRNA)
RNA: GAACCGGACUGUCUUA
modifications: m6A at position 8
On to B2, for which the binding result with FTO, with YTHDF2 YTH domain [4], in the data set with YTHDF3 YTH domain [5] and with YTHDC1 YTH domain [6] was “binds” each time. Also, in the data set with YTHDF1 YTH domain, the Kd was determined as 800 nM.

As usually defined, the Kd is a measure of binding affinity in units of concentration.
